The values below come from paper PMC4791640.

The series has as its target T1, TON_1525 wild-type (putative transcriptional regulator) (Thermococcus onnurineus NA1) (UniProt B6YTS4).
T1 sequence: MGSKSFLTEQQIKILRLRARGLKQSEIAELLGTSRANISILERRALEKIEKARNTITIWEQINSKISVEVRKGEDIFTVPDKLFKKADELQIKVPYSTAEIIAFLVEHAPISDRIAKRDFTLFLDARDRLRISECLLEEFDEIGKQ
Description: EMSA. To be noted: EMSA: 100 nM DNA, 20 mM Tris-HCl, 200 mM KCl, 1 mM EDTA, 5% glycerol, pH 7.5, 80 C for 10 min; 5% native PAGE. For orientation: A gel shift assay detects complexes by their altered migration in electrophoresis.

Take “GAGAGTTTTACTGTCTCTAAATGAAAGGTTCTAATACGGTGGATCGAATAATTTCTTGCGTTTTTATCCGGATCGCCGAACACGATTCCATCTTAAAATCTTTTTGTTTACATTATACGAGGTGATCAACAATGCCAGCTTTTTCCGGTT (double strand) [CODH promoter 150-bp probe]”: the binding result is “binds”.
